Test results published in patent publication US20040110663A1.

Target: Sonic hedgehog (Shh), human, as secreted by human cancer cell lines in co-culture (human)
Assay: cell-based or functional assay

inhibition of luciferase expression in S12 cells (gli-Luc assay, S12/RT-4 co-cultures): 85 ng/mL
inhibition of luciferase expression in S12 cells (gli-Luc assay, S12/RT-4 co-cultures), IC90: 0.5 µg/mL
Substance: Shh blocking antibody 5E1
